In this experiment the target is fourth component of human complement (C'4) (human). Kind of experiment: sucrose density gradient ultracentrifugation.

Take “C'2 oxidized by treatment with a critical concentration of iodine (oxyC'2) (natural protein)”: the s rate of C'2 in mixtures with C'4 (pH 5) amounted to 7.7 S and the s rate of C'2 in mixtures with C'4 (pH 8) amounted to 13.5 S.

For the origin of these results see paper PMC2138355.
